Publication PMC6499816 (2019)

How the values were obtained:
Assay in all cases: BLI (biotin peptide on tip)
FYCO1 = molecular target: T1, FYCO1 (Homo sapiens (Human), UniProt Q9BQS8)
T1 chain: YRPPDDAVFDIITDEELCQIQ

ATG13 = molecular target: T2, ATG13 (Homo sapiens (Human), UniProt O75143)
T2 chain: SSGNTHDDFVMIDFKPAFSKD

P62 = molecular target: T3, P62 (Homo sapiens (Human), UniProt Q13501)
T3 chain: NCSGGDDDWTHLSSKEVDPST

Kd (FYCO1): 3 µM
Kd (ATG13): 0.48 µM
Kd (P62): 2.7 µM
B1: LC3C (protein)
chain: MPPPQKIPSVRPFKQRKSLAIRQEEVAGIRAKFPNKIPVVVERYPRETFLPPLDKTKFLVPQELTMTQFLSIIRSRMVLRATEAFYLLVNNKSLVSMSATMAEIYRDYKDEDGFVYMTYASQETFG
